± gives the standard deviation.
Test: protein stability index of a GFP-peptide fusion (GPS, HEK-293T) (PSI 1-6); higher = more stable
Details: c terminus: a fixed tail appended
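Also: 24-mer peptide tiles fused after GFP, lentivirally expressed, FACS-sorted into six equal bins by GFP/DsRed ratio, decoded by Illumina sequencing, PSI is the read-weighted mean bin number.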

Row | Sequence | protein stability index (treatment: DMSO) | protein stability index (treatment: MLN4924 1 uM, 8 h)
1 | QQLRRGRYVEFNLLYDRGTKFGLF [CPOX] | 2.52 ± 0.51 | 2.56 ± 0.36
2 | EQGLSALHLAAQGRHAQTVETLLR [RIPK4] | 3.71 ± 0.55 | 4.12 ± 0.23
3 | TLKRGYFQKSLVLISKLPYIHFFH [DENND6A] | 3.11 ± 0.73 | 2.7 ± 0.3
4 | DALSSPTSVQEADETTRSDISERP [C2CD2L] | 5.64 ± 0.35 | 5.61 ± 0.24
5 | SLGVDTLPPPDPNPPRAEFNYSVG [APBB1IP] | 4.1 ± 0.31 | 4.44 ± 0.22
6 | QWILDKQDLLKERQKDLKFLSEEE [CCNC] | 4.43 ± 0.26 | 4.53 ± 0.097
7 | KLTDKHETVVSYLPLSHIAAQMMD [ACSBG2] | 2.66 ± 0.4 | 2.98 ± 0.43
8 | RVHAGSKAALAALCPGDLIQAING [PDLIM4] | 2.95 ± 0.15 | 3.03 ± 0.12
9 | EQRANDLEQIMESVKSKIGELEDE [CEP70] | 5.41 ± 0.098 | 5.39 ± 0.18
10 | GLVYRLNRFRVEISFHFEVTNHNI [TRIM43] | 3.33 ± 0.66 | 3.35 ± 0.8
11 | KTLQEIYRKYRKLIESELSYFVIV [FBXO39] | 2.37 ± 0.41 | 2.62 ± 0.55
12 | ADLWYLFGDLSLSLVTVGKHLTAR [POMT2] | 3.17 ± 0.74 | 2.56 ± 0.8
13 | TNTTSTQMTNIGVYVSNMTDKLVT [IQUB] | 2.78 ± 0.3 | 2.8 ± 0.34
14 | GLQEEPVEGFRVTLVDEGDLYNWE [CDC34] | 4.26 ± 0.14 | 4.15 ± 0.34
15 | NNTLVALPIVAIENILSFMSYDEI [FBXO28] | 3.22 ± 0.33 | 3 ± 0.61
16 | PLLLLCNIKPRRYLTVVFEHDAWF [SLC29A1] | 3.09 ± 0.71 | 3.06 ± 0.52
17 | GHVEVARLLLDSGAQVNMPADSFE [ANKRD17] | 3.88 ± 0.091 | 3.83 ± 0.24
18 | DDSCQDQPGTNCALAIKVNLCGHW [ADAMTSL2] | 2.57 ± 0.1 | 2.65 ± 0.46
19 | HRRELESSGAGSSPPAAPCPPPPG [ZBED3] | 5.12 ± 0.29 | 5.24 ± 0.16
20 | LLHSRNEGVATYAAAVLFRMSEDK [CTNNB1] | 2.9 ± 0.36 | 3.22 ± 0.087
21 | MSVGHLRLLSHDQVAMPYQWEYPY [JAGN1] | 2.11 ± 0.29 | 2.02 ± 0.4
22 | ADQKLVIIKQIPVEQMTKEERQAA [NEK8] | 4.62 ± 0.24 | 4.61 ± 0.23

Row | Sequence | protein stability index (treatment: DMSO) | protein stability index (treatment: MLN4924 1 uM, 8 h)
23 | HPVFYQGTYSQALNDAKRELRFLL [FAF2] | 2.26 ± 0.36 | 2.15 ± 0.14
24 | TAAGGQGGPGGPGSDKQQQQQHIE [NR2F2] | 5.34 ± 0.27 | 5.47 ± 0.19
25 | EYDVYSTFQSHEPEFDYLKSLEIE [PPP2R2C] | 4.33 ± 0.17 | 4.3 ± 0.078
26 | RLSSSLQGSAVTLKTSKMALSPSA [CDC14A] | 3.5 ± 0.38 | 3.65 ± 0.32
27 | KKLKIFAMPMQDIKMILKMVQLDS [PRAME] | 2.93 ± 0.58 | 2.75 ± 0.56
28 | VSISVVHGNLSEEAAKQMRSRGKV [CPOX] | 3.37 ± 0.47 | 3.47 ± 0.52
29 | RGPGASGEQPEPGEAAAGGAAEEA [ACBD3] | 5.54 ± 0.23 | 5.62 ± 0.15
30 | FSDSSMDHFQKFLPTVGGQLGTAG [MYOZ1] | 2.78 ± 0.31 | 3.23 ± 0.34
31 | QPSDRLMTEKQQEEAEWESINVLL [CEP70] | 4.38 ± 0.11 | 4.33 ± 0.12
32 | LLQGAGLDVERWLKPAMTQAQDEV [FCHSD1] | 3.6 ± 0.28 | 3.54 ± 0.26
33 | GHGAEQAAAFPTEDSRTSKESMSE [EHMT1] | 5.69 ± 0.2 | 5.19 ± 0.62
34 | HRGLLTMQLKSPMPSSTTQKDSYQ [SPAG8] | 3.87 ± 0.25 | 4 ± 0.21
35 | LEQFLAILPKELQAWVQKHHPENG [ZNF396] | 2.63 ± 0.14 | 2.79 ± 0.24
36 | ARAEAEQMAKKAEAFQLYQEAAQL [FLOT1] | 4.49 ± 0.17 | 4.52 ± 0.3
37 | LSFATRFHRLDEPPHICWDETHFG [POMT2] | 2.25 ± 0.29 | 2.25 ± 0.26
38 | TSAVLKAGRQSVSGRKNSTSKDLV [C6orf223] | 4.26 ± 0.074 | 4.38 ± 0.22
39 | ICSLICLLIYTVKIRRFNKAKPEP [TMEM192] | 2.24 ± 0.52 | 2.44 ± 0.63
40 | QWFAMLRAEQDSEVGPQEINKEEL [GMCL1] | 3.95 ± 0.43 | 3.81 ± 0.2
41 | ERRGTPADTEEPTKDPDVAFHGLS [PSD2] | 5.38 ± 0.42 | 5.38 ± 0.17
42 | IKKPESFSKQIVLRGKSIKRAPGE [NEUROD6] | 3.9 ± 0.12 | 4 ± 0.22
43 | RNKIIAATIENAQPILQIDNARLA [KRT16] | 3.35 ± 0.13 | 3.64 ± 0.14
44 | SPDGALLATASYDTRVYIWDPHNG [WSB1] | 2.5 ± 0.41 | 2.51 ± 0.6

Row | Sequence | protein stability index (treatment: DMSO) | protein stability index (treatment: MLN4924 1 uM, 8 h)
45 | TSAEIELPDVEPAAFLALLRFLYS [BTBD1] | 2.42 ± 0.25 | 2.34 ± 0.2
46 | FRYLQGMLEAGEGGDWPGPGGPRN [PDLIM4] | 2.76 ± 0.12 | 3.64 ± 0.49
47 | LQCLQALYVDSLFFLRGRLDQLLR [PRAME] | 2.09 ± 0.057 | 2.2 ± 0.61
48 | LVVFAVLGFKANIMNEKCVVENAE [SLC6A17] | 2.97 ± 0.32 | 2.82 ± 0.39
49 | RRCGELKRKLGLTALVGLRQNLSK [TPD52L3] | 2.41 ± 0.34 | 2.57 ± 0.16
50 | LRASGSLCGPHAKAPYLCEATHEP | 2.84 ± 0.22 | 3.1 ± 0.27
51 | FQEAAGPREALSRLQELCHGWLRP [ZNF263] | 2.66 ± 0.4 | 2.67 ± 0.35
52 | PWSPCSARFITDFLDNGYGHCLLD [ADAMTS4] | 2.05 ± 0.21 | 2.21 ± 0.41
53 | HLEDWLEKRAKRLSSAPSSRAEPI [ZMAT5] | 4.26 ± 0.78 | 3.58 ± 0.081
54 | KEYPVVPRSTVRQKVASNHSPFSS [TBX5] | 3.61 ± 0.38 | 3.72 ± 0.32
55 | RNGHLATVKLLVEEKADVLARGPL [RIPK4] | 3.1 ± 0.4 | 3.44 ± 0.19
56 | RRSSLVITTKIFWGGKAETERGLS [KCNAB2] | 2.09 ± 0.42 | 2.15 ± 0.29
57 | ICQKTATKKRKTFDSSRQRAEGTD [ZC2HC1A] | 4.8 ± 0.1 | 4.67 ± 0.53
58 | GVMSAYAMCVRYDGVEVDDSYCDA [ADAMTSL2] | 3.05 ± 0.15 | 2.91 ± 0.23
59 | PEQLVLTLLEAEPPHVLISRPSAP [ESR2] | 2.89 ± 0.31 | 3.1 ± 0.48
60 | LRDEHRCASKYGRDWERYTAAVPY [DHCR7] | 2.67 ± 0.12 | 2.92 ± 0.2
61 | YDPDYIQCPYCQRRFNENAADRHI [ZC2HC1A] | 3.84 ± 0.24 | 4.16 ± 0.34
62 | LEQRSESVRRTRSKIGFGILLSKE [SMAD6] | 3.51 ± 0.27 | 3.5 ± 0.3
63 | AAAQAPENFQEGKDMSESQDEVPD [TAF7L] | 5.62 ± 0.24 | 5.58 ± 0.23
64 | PAFLKWLSLASLLVYVAAFSIGLG [SLC2A12] | 3.28 ± 0.15 | 3.48 ± 0.79
65 | LLEDDSDEEEDFFLRGPSGPRFGP [VAMP4] | 3.97 ± 0.28 | 4.04 ± 0.39
